Experiment: yeast display, Sf9 membrane polyspecificity reagent, FACS + sequencing; frameworks hold sequencing errors
Procedure, shortened: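 Nanobodies came from a synthetic yeast display library in Saccharomyces cerevisiae BJ5465, induced with galactose for 36–48 hours and stained for 1 hour at 4 °C with 10% biotinylated, detergent-solubilized Sf9 membrane reagent. Cells were enriched on streptavidin microbeads and then FACS-sorted, with low and high (top ~1%) gates set on anti-HA fluorescence for expression and streptavidin fluorescence for reagent binding. Each polyreactivity label reflects the gate a clone came from. Genes were amplified by colony PCR, sequenced by MiSeq 2 × 250 and filtered by CDR length.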

Row | Sequence | polyreactivity (PSR sort gate)
1 | QVQLVESGGGLVQAGGSLRLSCAASGRIFSFNTMGWYRQAPGKEREFVATIRYSGGSTYADSVKGRFTISRDNAKNTVYLQMNSLKPEDTAVYYCAAAWWSYKFNRDFDYWGQGTQVTVSS | low polyreactivity
2 | QVQLVESGGGLVQAGGSLRLSCAASGSTFWIYAMGWYRQAPGKERELFAAITLRSGSTYYADSVKGRFTISRDNSKNTVYLQMNSLKPEDTAVYYCATDSWGFDSPNYNYWGQCTQVTVSS | low polyreactivity
3 | QVHLVESGGGLVQSGGSLRLRCAASGSTFYGYTKAWYRQAPGKERELVAAINWSGTRTYYADSVNGRFTISRDTAKNTVYLQMNSLKPEDTAVYYCAAERYYWGLGTQVTVSS | high polyreactivity
4 | QFQLVESGGGLVQAGGSLRLSCAASGFIFGYNAMGWYRQAPGKERELVAAINWSGDITYYADSVKGRFTISRDNAKNTVYLQMNSLKPEDTAVYYCAADDYYIPSSWDFDYWGQGTQVTVSS | low polyreactivity
5 | QVQLVESGGGLVQAGGSLRLSCPASGRTIRPYAMGWYRQAPGKERELVAAITGSGTSTYYADSVKGRFTISRDNAKNTVYLQMNSLKPEDTAVYYCAVAIGYVYKTYYYWGQGTQVTVSS | high polyreactivity
6 | QQLQESGGGLVQAGGSLRLSCAASGSISGSVLMGLYRQAPGKEREFVASISLGGNTNYADSVKGRFTISRENGKITVFLQMNSLKPEVAAVYYCAAYISLFETHPYWGQGTQVTVRS | high polyreactivity
7 | QVQLGESGGGLVQAGGSLRLSCAASGSIFKWYAMGWYRQAPGKERELVAAISASGGSTYYADSVKGRFTISRDNAKNSVYLQMNSLKPEDTAVYYCNTDHYYSSRHYDYWGQGTQVTVSS | low polyreactivity
8 | QVQLGESGGGLVQAGGSLRLSCAASGIIFDTYAMGWYRQAPGKQRELVAVISTRGTSTYYADSVKGRFTISRDNAKNTVYLQMNSLKPEDTEVYYCNAFGRYSYPTFDYWGQGTQVTVSS | high polyreactivity
9 | QVQLVESGGGLVQAGGSLRLSCAASGRTFKVNAMGWYRQAPGKERELVAAITYSGGGTYYADSVKGRFTISRDNAKNTVYLQMNSLKPEDTAVYYCAAPVYTWYHRYDYWGQGTQVTVSS | high polyreactivity
10 | QVQLVESGGGLVQAGGSLRLSCAASGSTFPRYAMGWFRQAPGKEREFVAAISRRGGSTYYADSVKGRFTISRDNAKNTVYLQMNSLKPEDTAVYYCANRVRTGSVGNFNYWGQGTQVTVSS | high polyreactivity
11 | QVQLVESGGGLVQAGGSLRLSCAASGLIFADYVMGWYRQAPGKERELVATINQGGGSTYYADSVKGRFTISRDNAKNTVYLQMNSLIPEDTAVYYCAATWALLYAIFESYDYWGQGTQVTVSS | low polyreactivity
12 | QVQLVESGGGLVQAGGSLRLSCAASGSIFGYNVMGWYRQAPGKERELVAGITSGGSTNYADSVKGRFTISRDNAKNTVYVQMNSLKPEDTAVYYCNAEGVFGDGRSGFYWYDYWGQGTQVTVSS | low polyreactivity
13 | QVQLVESGGGLVQAGGSLRLSCAASGSTFAFNAMGWYRHAPGKERELVATISQSGGSTYYADSVKGRFTFSRDNAKNTVYLQKNSLKPEDTSVYYCAKRYWSKWYGRYDYWRQGTQVTVSS | low polyreactivity
14 | QVQLVKSGGGLVQAGGSLRLICAASGSIFGYNTMGWYRQAPGKERELVATITYRGGSTYYADSVKGRFTISRDNAKNTVYLQMNSLKPEDTAVYYCARRVTRYPYTTWVSAGDYWGQGTQVTVSS | high polyreactivity
15 | QVQLVESGGGLVQAGGSLRLSCTASGFTFFSNAMGWYRQAPVKEREFVASISRSGGRTYYADSVKGRFTISRDNEKNTVYLQMNSLKPEDTAVYYCAADVPYYLHNPRYGYWGQGTQVTVSS | high polyreactivity
16 | QVQLVESGGGLVQSGGSIRLSCAASGSTFLWYCMGWYRQAPGKERELVASISRGGGTDYADSVKGRFTISRDNAKNTVYLQMNSLKPEDTAVYYCAATGVNRYDHWGQGTHVTVSS | low polyreactivity
17 | QVQLVESGGGLVQAGGSLRLSCAASGFTFKGNAMGWYRQAPGTERELVATITQSAGSTYYADSVKGRFTISRDNAKNTVYLEMNSLKPEDTAVYYCNADPITLYYYSWYNYWGQGTQVTVSS | low polyreactivity
18 | QDQLVESGGGLVQAGGSLRLSCAASGSIFDIYAMGWYRQAPGKEREMVASIRRRGGSTYYADSVKGRFTISRDNAKNTVYLQMNSLKPEDTAVYDCNARRVWLRTTWTNWPERGYWGQGTQVTVSS | high polyreactivity
19 | QVQLVESGGGLVQAGGSLRLSCAASGNIFRVYDMGWYRQAPGKERELVATITSGGRTYYADSVKGRFTISRDNAKNTVYLQMNSLKPEDTAVYYCNVDVKGRPTFWSPFGRFDYWGQGTQVTVSS | high polyreactivity
20 | QVQLVESGGGLVQAGGSLRLICAASGIIFRSYAMGWYRQAPGKERELVAGISLSGGSTYYADSVKGRFTISRDNAKNTVYLQMNSLKPEDTAVYYCAARRRYKSGYWGQGTQVTVSS | high polyreactivity
21 | QVQLVESGGGLVQAGGSLRLSCAASGFIFPFYAMGWYRQAPGKEREFVAAITLSSGSTYYADSVKGRFTISRDNAKNTVFLQMNSLKPEDTAVYYCNADYNVYLYYGYDYWGQGTHVTVSS | low polyreactivity

Row | Sequence | polyreactivity (PSR sort gate)
22 | QVQLVESGGGLVQAGGSLRLSCAASGSILAGYAMGWYRQAPGKERELVAAISGGGGSTYYADSVKGRFTISRDNAKNTVYLQMNSLKPEDTAVYYCAAQDTYYGLFSYWIPWSGYWGQGTQVTVSS | high polyreactivity
23 | QVQLVESGGGLVQAGGSLRLSCAASGSIFGAYTMGWYRPAPGKERELVAALSIGGSTNYADSVKGRFTISRDNAKNTVYLQMNSLKPEDTAVYYCNAEPHREDWWWAIGLYDYWGQGTQVTVSS | high polyreactivity
24 | QVQLVESGGDLVQAGGSLRLSCAATGYTFLRYTMGWYRQAPGKERELVAAITSGTSTYYADSVKGRFTISRDNEKNTVYLQMNSLKPEDTAVYYCDKTPTRQRYGHWGQGTQVTVSS | high polyreactivity
25 | QVQLVESGGGFVQAGGSLRLSSAASGLTFAAYAMGWSRQAPGKERELVASISRRGGSTYYADSVKGRFTISRDNAMNTVYLQMNSLKPEDTAVYYCAARSFWGGLRYDYWGQGTQVTVSS | high polyreactivity
26 | QVQLVESGGGLVQAGGSLRLSCAASGRIFKYNAMGWYRQATGKERELVAAISSSGGSTYYADSVKGRFTISRDNANNTVYLQMNSLKPEDTAVYYCAARYNSRVYRYDYWGQGTQVTVSS | high polyreactivity
27 | QVQHVESGGGLVQAGGSLRLSCAASGSIFVRNAMGWYRQAPGKEREFVAAISRSGDSTNYADSVKGRFTISRDNAKNTVYLQMNSLKPEETAVYYCAVGYRYLKWVDYWGQGTQVTVSS | high polyreactivity
28 | QVQLVESGGGLVQAGGSLRLSCAASGRTFYVSAMGWYRQAPGKERELVAAISWSGGSTYYADSVKGRFTISRDNAKNTVYLQMNSLKPEDTAVYYCAAQTYQRHVVAYDYWGQGTQVTVSS | low polyreactivity
29 | QVQLVESGGGLVQAGGSLRLSCAASGGIIGWYAMGWYRQAPGKERELVAAINWSGADTYYADSVKGRFTISRDNAKNTVYLQMNSLKPEDTAVYYCAADGHKYRMDYWGQGTQVTVSS | low polyreactivity
30 | QVQLVESGGGLVQAGGSLRLSCAASGITFGYYAMGWYRQAPGKERELVASISWSGDSTYYADSVKGRFTISRDNAKNTVYLQMNSLKPEDTAVYYCNRGSSWEYGAEYNYWGQGTQETVSS | low polyreactivity
31 | QVQLVESGGGLVQAGGSLRLSCAASGSIFGENARGWYRQAPGKERELVAAITSGGSTYYADSVKGRFTISRDNAKNTVYLQMNSLKPVDTAVYYCAASGRVGPGYWYDSWGQGTQVTVSS | low polyreactivity
32 | QVQLVESGGGLVQAGGSLRLSCAASGITNTHYAMGWYRQAPGKERELVAAITSSGRTYYADSVKGRFTISRDNAKNTVYLQMNSLKPEDTAVYYCAAEHSWYYGLLGYWGQGTQVTVSS | high polyreactivity
33 | QVQLVESGGGLVQAGGSLRLSCAASGRIFVGDAMGWYRQAPGTERELVAAISRDGDNTFYADSVKGRFTISRDNAKNTVYLQMNSLKPEDTAVYYCAVDYWVWYGSAYAYDYYWGQGTQVTVSS | low polyreactivity
34 | QVQLVESGGGLVQAGGSLRLSCAASGFTFEGYAMGWYRQAPGKERELVAAISYSGSSTYYADSVKGRFTISRDNAKNTVYLQMNSLKPEDTAVYYCNARRHWYSAWGYDYWGQGTQVTVSS | high polyreactivity
35 | QVQLVESGGGLVQAGGSLRLSCAASGRTFGQYAMGWYRQAPGKERQLVAAISTRGGSTYYADSVKGRFTISRDNAKNTVYLQMNSLKPEDTAVYYCAARPGWFAGYEYWGQGTQVTVSS | low polyreactivity
36 | QVQLVESGGGLVQAGGSLRLSCAASGSTIRHYAMGWYRQAPGKERELVAAISSGARTYYADSVKGRFTISRDNAKNTVYLQMNSLKPEDTAVYYCAARYNGYAYPYYYWGQGTQVTVSS | high polyreactivity
37 | QVQLVESGGGLVQAGGSLRLSCAASGRTFGYYGMGWYRQAPGKERELVASINFSSGSTFYADSVKGRFTISRDNAKNTVYLQMNSLKPEDTAVYYCAARAKAVRSYAYNYWGQGTQVTVSS | low polyreactivity
38 | QVQLVESGGGLVQAGGSLRLSCAASGRIFKTNAMGWYRQAPGKERELVAAISKRGGRTYYADSVKGRFTISRDNAKNTVYLQMNSLKPEDTAVYYCATRYSGYSLGDYWGQGTQVTVSS | high polyreactivity
39 | QVQLVESGGVLVQAGGSLRLSCAASGSLFILYALGWYRQEPGKEREFVASISRSGSTYYADSVKGRFTISRDNAKNSVYLQMNSLKPEDTAVYYCAADYRQFYRYVDYEYWGQGTQVTVSS | low polyreactivity
40 | QVQLVESGGRLVQAGGSLRLSWAASGRILWSNRMGWYRQAPGKERELVAAITYSGDTTYYADSVKGRFTISRDNEKNTVYLQMNSLKPDDTAVYYCAVEDAGQGGDYWGQGSQVTVSS | low polyreactivity
41 | QVQLVESGGGLVQAGGSLRLSCAASGFTFVYYAMGWYRQAPGKERALVASITQSGGSTRYADSVKGRFTISRDNAKNTVYLQMNSLKPEDTAVYYCNRRLYRRWGLDWQYYYWGQGTQVTVSS | high polyreactivity
